The record followed here is US12485079B2, “Compositions and methods relating to pigmentation” (Alastin Skincare, Inc., priority 2020, dated 2025).

The subject of data set [1] is PMEL, tyrosinase genes, MC1/4R, EDNRB, MITF, ERK1/2, JNK, AKT1. As to the kind of experiment: Gene expression studies of Example 5. The format is cell-based. The source says: The methods similar to Examples 3-4 were used to measure expression of PMEL, tyrosinase genes, MC1/4R, EDNRB, MITF, ERK1/2, JNK, and ANKT1.
FIGS. 10A-10D illustrates the expression of PMEL (FIG. 10A), Tyrosinase genes (FIG. 10B), MC1/4R (FIG. 10C), and EDNRB (FIG. 10D) after treatment of endothelial cells with lactoferrin (Lacto), peptide derived from lactoferrin (TCV), hexapeptide-12 (Hex12), tripeptide-1 and hexapeptide-12 (TriHex), hexapeptide-11 (Hex11), tranexamic acid (Tran acid) octapeptide (Octa), phosphatidylserine (phos), Cannabidiol (CBD), and all (total).
MITF is regulated by phosphorylation. Specifically, the MAPK and Akt pathways are known to phosphorylate MITF at certain sites. FIGS. 12A-12C illustrate the expression of ERK1/2 (MAPK3/MAPK1) (FIG. 12A), JNK (FIG. 12B), AKT1 (FIG. 12C) after treatment of endothelial cells with lactoferrin (Lacto), peptide derived from lactoferrin (TCV), hexapeptide-12 (Hex12), tripeptide-1 and hexapeptide-12 (TriHex), hexapeptide-11 (Hex11), octapeptide (Octa), phosphatidylserine (phos), Cannabidiol (CBD), and all (total).

Data set [2] has as its system melanogenic genes in melanocytes. The experiment in a line: Gene expression study (RNA sequencing) in PGE2-induced melanocytes. The format is cell-based, human. As to the method: (§1) Four cell types associated with pigmentation pathways-melanocytes, keratinocytes, fibroblasts and endothelial (HUVEC) cells-were analyzed for gene expression.
(§2) To simulate the UV stimulatory pigmentation pathway process, melanocytes were pre-treated with PGE2, a normal direct consequence of UV light exposure usually emanating from exposed keratinocytes. After the 48 hour attachment culture, these melanocytes were induced with 10 uM PGE2 in melanocyte media for 24 hrs. The four primary human adult dermal cell lines were cultured and plated in well plates in triplicate and then treated with 11 different compound treatments (plus DMSO control). After 48 hours of attachment culture, the remaining fibroblasts, HUVECs and keratinocytes were treated with the test compounds listed in Table 6.
(§3) After 24 hours of compound exposure, RNA lysate preparation was carried out and samples were shipped to MedGenome for RNA extraction, library construction and sequencing to 25M paired end 100 bp reads per sample. Library prep and sequencing was completed at MedGenome.

For data set [3], the system named is hTERT-immortalized dermal melanocytes. The experiment in a line: Melanocyte assay, daily inspection of morphology and survival (Example 6). The following applies: both 500 and 1000 ug/mL.
Protocol: Melanocytes were initially plated in 6-well tissue culture plate (1.5×10^3 cells per well) in melanocyte growth media (Dermal Cell Basal Medium (ATCC® PCS-200-030 supplemented with Melanocyte Growth Kit (ATCC® PCS-200-041). Melanocytes were then expanded into 10 cm tissue culture plates at concentrations recommended by ATCC. The cells appear to fully adhere to the plate/dish while culturing with a webbed morphology. Cells were cultured at 37° C. 5% CO2 incubator.
Once the melanocytes were 100% confluent in 6-well plates, the melanocyte growth media was removed and the melanocytes were treated with media containing the above compounds; duplicate wells for each compound/concentration listed above. The duplicate vehicle control wells were fed melanocyte growth media only or melanocyte growth media with DMSO (10 uL per 10 mL melanocyte growth media).
The cells were fed the appropriate media for the next 5 days. Each day, the cells were inspected for morphology.
Data set [4] deals with melanogenic genes. The experiment in a line: Cell line melanogenic gene activity testing, overall conclusion. The following applies: conclusion over melanocytes, keratinocytes, HUVECs. The format is cell-based, human. How it is done: as §1, §2, §3
Data set [5] has as its system melanocytes (melanin production). The experiment in a line: In vitro melanocyte comparative analysis via absorbance readings (Example 4). The format is cell-based. Conditions: for Absorbance 405 nm / Absorbance 490 nm / Absorbance 492 nm: melanocyte lysates, 4 days. As to the method:
Melanocytes were cultured in 6-well plates containing growth media. Once confluent, 2 concentrations of each of the 10 compounds were added to the cells in triplicate wells for 4 days. There were a total of eleven 6-well plates, one for each compound treatment and one for the vehicle control. Absorbance readings were taken on the lysates prepared for each well of the 6-well plates, normalizing for cells counts. […] Additional validation was carried out using MSH addition to media to confirm increased stimulation of melanin production. The following compounds used in this study are seen in Table 7.

Data set [6] concerns hTERT-immortalized dermal melanocytes. As to the kind of experiment: Melanocyte assay, absorbance of lysate pellets (Example 6). The format is cell-based, human. The following applies: melanocyte lysate pellet, 5 days. How it is done:
hTERT-immortalized dermal melanocytes were treated with various compounds.
Stocks of compounds 1 through 10 on the list below were suspended in either complete melanocyte growth media or DMSO (indicated in parentheses.) Each compound re-suspension was then diluted in melanocyte growth media to the final concentrations in Table 9.
Lysates were prepared for each sample. Briefly, 6.6×10^5 cells from each sample was spun down and collected in a vial. 150 uL of CHAPS lysis buffer was added to each duplicate sample, vortexed and placed in a dry-ice/ethanol bath for 2 minutes, then left at room temp until completed thawed. This freeze thaw was done one more time, for a total of two freeze/thaw cycles. The lysate samples were spun for 15 minutes at 14,800 rpm. The supernatant was removed, leaving a black pellet in the vial. The pellet was re-suspended in 100 uL of a 1 M NaOH/10% DMSO solution and incubated at 80° C. for 90 minutes, pipet mixing at 30 minutes, 60 minutes and at 90 minutes.
100 uL of each duplicate sample at each concentration was added to individual wells of a flat bottom 96 well plate and absorbance readings were taken at 405 nm, 490 nm and 492 nm on the Envision 2103 Multilabel Reader.

B1: Lactoferrin (protein, UniProt P02788 20-710, looked up)
Lactotransferrin: GRRRSVQWCAVSQPEATKCFQWQRNMRKVRGPPVSCIKRDSPIQCIQAIAENRADAVTLDGGFIYEAGLAPYKLRPVAAEVYGTERQPRTHYYAVAVVKKGGSFQLNELQGLKSCHTGLRRTAGWNVPIGTLRPFLNWTGPPEPIEAAVARFFSASCVPGADKGQFPNLCRLCAGTGENKCAFSSQEPYFSYSGAFKCLRDGAGDVAFIRESTVFEDLSDEAERDEYELLCPDNTRKPVDKFKDCHLARVPSHAVVARSVNGKEDAIWNLLRQAQEKFGKDKSPKFQLFGSPSGQKDLLFKDSAIGFSRVPPRIDSGLYLGSGYFTAIQNLRKSEEEVAARRARVVWCAVGEQELRKCNQWSGLSEGSVTCSSASTTEDCIALVLKGEADAMSLDGGYVYTAGKCGLVPVLAENYKSQQSSDPDPNCVDRPVEGYLAVAVVRRSDTSLTWNSVKGKKSCHTAVDRTAGWNIPMGLLFNQTGSCKFDEYFSQSCAPGSDPRSNLCALCIGDEQGENKCVPNSNERYYGYTGAFRCLAENAGDVAFVKDVTVLQNTDGNNNEAWAKDLKLADFALLCLDGKRKPVTEARSCHLAMAPNHAVVSRMDKVERLKQVLLHQQAKFGRNGSDCPDKFCLFQSETKNLLFNDNTECLARLHGKTTYEKYLGPQYVAGITNLKKCSTSPLLEACEFLRK
On to B1, for which the “melanogenic activity (expression of PMEL, Tyrosinase genes, MC1/4R, EDNRB; FIGS. 10A-10D)” value in data set [1] (after treatment of endothelial cells) was “robust melanogenic activity”. Also, the “effects on melanogenic activity (kinase expression linked to decreased MITF expression)” value in data set [1] (conclusion of Example 5) is on record as “significant effects”. For the same molecule, in data set [2] (melanocytes pre-treated with 10 uM PGE2, 24 hours of compound exposure), the “melanogenic activity (FIGS. 3A-3D)” value is given as “particularly dominant in melanogenic activity”. In addition, in data set [2] (melanocytes, 24 hours of compound exposure), the “expression of melanogenic genes (FIG. 4, FIG. 5)” value is given as “downregulation of melanogenic genes”. Moreover, the melanocyte morphology result is “circular morphology” in data set [3] (24 hour post-initial dosing) and “returned to normal morphology” in data set [3] (48 hours post-initial dosing, maintained through the 5 day dosing period). For the same molecule, the “effects on melanogenesis activity” value in data set [4] is on record as “significant effects on melanogenesis activity”. The “Absorbance 405 nm” value in data set [5] (500 ug/uL) was 0.509; in data set [5] (1000 ug/uL), 0.519; in data set [6] (500 ug/uL), 0.509; in data set [6] (1000 ug/uL) it was 0.519. For the same molecule, the “Absorbance 490 nm” value in data set [5] (500 ug/uL) was 0.334; in data set [5] (1000 ug/uL) it was 0.312; in data set [6] (500 ug/uL), 0.334; in data set [6] (1000 ug/uL) it was 0.312. Besides, the “Absorbance 492 nm” value in data set [5] (500 ug/uL) amounted to 0.217; in data set [5] (1000 ug/uL) it was 0.226; in data set [6] (500 ug/uL), 0.217; in data set [6] (1000 ug/uL), 0.226. The “regulation of melanogenesis (decrease of absorption = decreased melanin formation)” value in data set [5] (melanocytes, Table 8) was “Regulation of melanogenesis was observed”.
